Measured values: the supplement of paper PMC10567573

B1: SOAT1 (parent)
chain: PSNGRIDIKQLIAKKIKLTAEAEE

Variants of: B1
Assay: protein stability index of a GFP-peptide fusion (GPS, HEK-293T) (PSI 1-6); higher = more stable
Details: c terminus: a fixed tail appended
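Further: lentivirally expressed fusions sorted by FACS into six bins by GFP to DsRed ratio, PSI derived from sequencing read proportions per bin multiplied by bin number.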

Protein stability index: each site, then its substitutions
E21: L 2.96, V 2.59, Y 2.21, I 3.19, A 2.74, N 3.13, P 2.92, C 2.78, G 2.63, H 3.13, Q 3.05, W 2.12, D 3.43, R 2.95, F 1.97, K 2.51, T 3.15, M 2.4, S 3.02
A20: F 2.51, G 3.42, M 2.71, H 3.66, E 3.88, T 3.47, Q 3.44, P 3.78, W 2.66, V 2.8, I 2.7, R 3.07, K 3.47, Y 2.8, S 3.61, N 3.19, C 3.44, D 3.16, L 3.1
A22: P 3.18, N 3.32, F 2.35, G 3.66, I 2.59, E 3.93, K 3.15, L 3.2, H 3.42, M 3, D 4.05, C 2.63
A13: W 2.83, V 2.84, Y 2.97
T19: D 4.18, G 3.17, P 3.4, L 2.15, N 3.29, E 3.88, H 3.21, V 2.75, I 2.12, Q 2.96, S 2.9, K 2.52, Y 2.52, M 1.89, A 3.48, F 1.98, R 2.73, W 2.21, C 3.06
K15: D 4.25, L 1.87, M 3.11, V 2.42, P 4.22, Y 2.69, C 2.5, H 3.17, R 2.88, E 4.52, I 2.48, W 2.63, T 3.13, S 3.59, A 3.19, G 4.05, F 2.47, N 4.05, Q 3.87
K17: M 3.1, F 3.15, L 3.12, A 3.67, T 3.5, E 3.62, H 3.02, I 2.84, V 3.38, D 4.01, W 2.53, G 3.55, C 3.05, P 3.84, Y 2.84, R 2.99, Q 3.5, S 3.59, N 3.61
I16: A 4.04, C 3.31, R 3.65, Y 3.16, L 3.22, F 2.97, S 3.9, K 4.01, W 3.18, P 3.81, H 3.78, Q 3.52, N 4.02, D 4.42, V 3.75, G 4.5, T 4.1, E 4.45, M 3.51
L18: F 3.38, W 2.9, M 3.27, K 3.23, A 3.62, E 4.14, D 4.13, I 3.72, S 3.59, V 3.53, N 3.73, Q 3.89, C 3.67, Y 3.13, G 4.04, R 3.45, T 3.38, H 3.69, P 4.04
K14: S 3.84, N 3.59, G 3.63, Y 2.62, F 2.63, R 3.22, W 3.07, M 2.96, Q 3.22, A 2.88, V 2.98, T 3.34, E 4.04, P 4.38, H 3.46, D 3.96, I 2.71, C 3.37, L 2.24
